Literature values, collected in publication PMC6104694.
Where two headings read alike, the source gives them in different places.

Legend:
[1] = biological target: presenilin-1 C-terminal fragment 23 amino acid CTF (Homo sapiens) (UniProt P49768)
[2] = biological target: presenilin-1 C-terminal fragment 23 amino acid CTF (Homo sapiens) (UniProt P49768); remark: listed apart in the source

Sequence of KChIP3 (calsenilin) (Q9Y2W7 whole entry): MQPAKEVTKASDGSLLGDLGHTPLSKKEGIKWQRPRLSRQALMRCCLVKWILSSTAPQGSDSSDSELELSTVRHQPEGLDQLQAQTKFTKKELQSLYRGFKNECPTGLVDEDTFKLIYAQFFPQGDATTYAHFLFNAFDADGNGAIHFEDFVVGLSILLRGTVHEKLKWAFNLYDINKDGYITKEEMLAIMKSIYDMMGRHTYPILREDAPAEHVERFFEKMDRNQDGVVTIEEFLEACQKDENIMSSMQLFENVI

Kd [1]: 0.6 µM
Kd [2]: 183 µM
Substance: KChIP3 (calsenilin) (from UniProt Q9Y2W7)
